From paper PMC11922929, “Functional recoding of Chlamydomonas reinhardtii thioredoxin type-h into photosynthetic type-f by switching selectivity determinants” (Frontiers in Plant Science, 2025) come the findings set out here.

In one test the target is T1, CrFBPase (Chlamydomonas reinhardtii, UniProt A8IKQ0).
T1 construct: gene CHLRE_12g510650v5; recombinant, N-terminal poly-histidine tag, pET plasmid, E. coli BL21(DE3), Ni-NTA purified
T1 sequence (A8IKQ0 29-415): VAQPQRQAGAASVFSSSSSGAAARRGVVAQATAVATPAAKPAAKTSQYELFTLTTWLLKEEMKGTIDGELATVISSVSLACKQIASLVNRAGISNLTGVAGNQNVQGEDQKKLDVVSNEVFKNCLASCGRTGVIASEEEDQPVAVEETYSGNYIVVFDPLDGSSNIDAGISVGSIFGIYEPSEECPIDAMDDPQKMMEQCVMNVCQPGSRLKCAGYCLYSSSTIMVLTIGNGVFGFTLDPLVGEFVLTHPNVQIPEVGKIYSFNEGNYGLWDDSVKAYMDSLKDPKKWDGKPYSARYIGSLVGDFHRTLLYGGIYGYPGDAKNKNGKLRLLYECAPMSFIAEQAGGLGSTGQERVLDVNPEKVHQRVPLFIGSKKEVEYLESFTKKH
As to the kind of experiment: coupled spectrophotometric assay of FBP hydrolysis (NADP+ reduction at […] nm). The settings on record: 0.6 mM FBP, 10 mM MgCl2, 30 mM Tris pH 7.9, 20 °C; FBPase pre-incubated with 1 mM DTT, with or without 50 µM thioredoxin. Format: biochemical.

Test [1] concerns the target Chlamydomonas reinhardtii fructose-1,6-bisphosphatase (CrFBPase) (Chlamydomonas reinhardtii).

As for `O=P(O)(O)OC[C@H]1OC(O)(COP(=O)(O)O)[C@@H](O)[C@@H]1O` (stereo partly shown) [FBP], the “coupled spectrophotometric assay of FBP hydrolysis (NADP+ reduction at 340 nm)” value on CrFBPase is recorded as “The activity of FBPase was determined in the direction of FBP hydrolysis”.
As to “Chlamydomonas reinhardtii thioredoxin f2 (CrTRXf2) (enzyme)”, in test [1], the FBPase activity (coupled spectrophotometric assay, NADP+ reduction at 340 nm, initial velocity) after 5 min pre-incubation with 1 mM DTT and 50 µM TRXf2, 20°C, n=4 was 106 ΔAbs/min; the fold increase of FBPase activity after pre-incubation with 1 mM DTT and 50 µM TRXf2 came out at 6 fold.
In the case of “TRXχ1 (chimera 1; TRXh1-K49,K69,K70,K78,K99) (from UniProt P80028 1-113) (enzyme)”, in test [1], the FBPase activity (coupled spectrophotometric assay, NADP+ reduction at 340 nm, initial velocity) after 5 min pre-incubation with 1 mM DTT and 50 µM TRXχ1, 20°C, n=4 was 172 ΔAbs/min; the fold increase of FBPase activity after pre-incubation with 1 mM DTT and 50 µM TRXχ1 turned out to be 9.8 fold.

B1: Chlamydomonas reinhardtii thioredoxin h1 (CrTRXh1) (enzyme)
chain: MGGSVIVIDSKAAWDAQLAKGKEEHKPIVVDFTATWCGPCKMIAPLFETLSNDYAGKVIFLKVDVDAVAAVAEAAGITAMPTFHVYKDGVKADDLVGASQDKLKALVAKHAAA
For B1, in test [1], the FBPase activity (coupled spectrophotometric assay, NADP+ reduction at 340 nm, initial velocity) after 5 min pre-incubation with 1 mM DTT and 50 µM TRXh1, 20°C, n=4 is 59 ΔAbs/min; the fold increase of FBPase activity after pre-incubation with 1 mM DTT and 50 µM TRXh1 came out at 3.4 fold.
